Data set [1] can be described thus: Residence time in blood of HA-GLP-1 mutant conjugate (Test Example 5). It is filed as in vivo, rat. Here is the method:
The HA-GLP-1 mutant conjugate solution obtained in Example 15-2 was diluted with PBS that contained 0.05% Tween 80 (pH 7.4; hereinafter also referred to as “solvent Z”), and the thus diluted solution was then administered at a dosage of 50 μg/kg into the vein of a rat as a single dose. Thereafter, 1, 4, 8, 24, 48, 72, 96, and 168 hours after the administration, the blood was collected (heparin treatment). The blood was then centrifuged, so as to obtain plasma. This plasma sample was cryopreserved at −20° C. or less until measurement was carried out.
Thereafter, they were analyzed using a microplate reader. Conditions for measurement are described below:
Microplate reader: SPECTRA MAX GEMINI (manufactured by Molecular Devices)
Detection: Fluorescence (EX: 355 nm, EM: 460 nm)
The HA-GLP-1 mutant conjugate solution obtained in Example 15-2 was diluted with solvent Z and Assay Buffer included with kit W, so as to prepare standard solutions having concentrations of 12.8, 6.4, 3.2, 1.6, 0.8, 0.4, 0.2, 0.1 μg/ml and 0 μg/ml. Thereafter, 5 μl of normal rat plasma was added to this standard solution, so as to prepare a sample used for calibration curve.
Assay Buffer included with kit W was added to the HA-GLP-1 mutant conjugate-administered rat plasma sample, so as to prepare a measurement sample.
The concentration of the HA-GLP-1 mutant conjugate in plasma was calculated based on the calibration curve obtained from the fluorescence intensity of each standard sample using analysis software SOFTmax PRO (manufactured by Molecular Devices).
With regard to data of a change in the concentration in blood of the administered HA-GLP-1 mutant conjugate, pharmacokinetic parameters were calculated using WinNonlin Ver 4.0.1 (manufactured by Pharsight). With regard to a change in the concentration in plasma of each individual, model-independent analysis was carried out, so as to calculate the mean residence time in blood (MRT). The half-life (t1/2) was calculated using the data of the final 3 measurable points of each individual.

Data set [2] has as its system BKS.Cg-+Lepr^db/+Lepr^db/Jcl mouse. The data set can be described thus: Oral sugar tolerance test. It is filed as in vivo. The following applies: for Hypoglycemic ratio: mean value. Here is the method:
8-week-old male BKS.Cg-+Lepr^db/+Lepr^db/Jcl mouse (manufactured by CLEA Japan, Inc.) was subjected to fasting overnight. Thereafter, the HA-GLP-1 mutant conjugate solution obtained in Example 15-2 that had been diluted with solvent Z (peptide amount: 1.5 μg/kg, 15 μg/kg, or 150 μg/kg) or solvent Z was intravenously administered to the above […]. 1 minute after the intravenous administration, a 50% glucose solution (Otsuka Pharmaceutical Co., Ltd.) was orally administered at a dosage of 3 g/kg. […]
The blood was collected from the tail portion before administration of glucose (value at hour 0), and 0.5, 1, 2, and 4 hours after the administration of glucose. Thereafter, the blood glucose level was measured by the enzyme method (hexokinase method, Autosera S GLU (Daiichi Pure Chemical Co., Ltd.; equipment name: BioMajesty JCA-BM1250 (JEOL Ltd.)).
The blood glucose level was calculated by the following hypoglycemic ratio: […]
The mean value and standard deviation of each group were calculated from the calculated hypoglycemic ratio.

Where [3] appears, read: intravenously administered to a rat.
[4] abbreviates: rat vein, 50 μg/kg single dose, mean value.

Where no end group is shown, it is not given here.

Data on one substance can be found in US9394379B2, “Process for producing water-soluble hyaluronic acid modification” (Chugai Seiyaku Kabushiki Kaisha, priority 2004, dated 2016).

A word on the MRT: it is the average time that molecules of a dose stay in the body. Usually half-life stands for the time in which the quantity being followed falls by half. A higher half-life goes with slow loss.

For the substance “HA-GLP-1 mutant conjugate: GLP-1 mutant (Gly at position 8, Cys at position 37) bound to HA-AM-MI/SUC; 3.7 GLP-1 mutant/HA (mol/mol) (HGEGTFTSDVSSYLEGQAAKEFIAWLVKGRC; also: bound to modified hyaluronic acid HA-AM-MI/SUC, 3.7 peptide per HA, attachment site not given here; UniProt P01275 98-128, looked up, variant A8G G37C)”, in data set [1] (setting [3]), the mean residence time (MRT) was 30.2 h and the half-life came out at 23.6 h. Also, in data set [1] (setting [4]), the Distribution volume is 53.4 mL/kg, the “Mean residence time in blood” value was determined as 30.2 h, the Total clearance came out at 1.8 mL/h/kg and the half-life was 23.6 h. For the same substance, the “hypoglycemic action compared with GLP-1 (Human, 7-37)” value in data set [2] (oral sugar tolerance test) is reported as “significantly increased”. Moreover, the Hypoglycemic ratio in data set [2] (peptide amount 1.5 μg/kg intravenous 1 minute before oral glucose 3 g/kg) is recorded as 3.0%. The Hypoglycemic ratio in data set [2] (peptide amount 15 μg/kg intravenous 1 minute before oral glucose 3 g/kg) worked out at 60.1%. Moreover, the Hypoglycemic ratio in data set [2] (peptide amount 150 μg/kg intravenous 1 minute before oral glucose 3 g/kg) stood at 120.3%.
